This is an account of results in patent CN114989300A (BIO THERA SOLUTIONS LTD, dated 2022).

To fix the notation:
T1: 人TIGIT (TIGIT-Jurkat细胞表面) (human, UniProt Q495A1 22-244)
T1 construct: whole, on cells
T1 sequence (looked up): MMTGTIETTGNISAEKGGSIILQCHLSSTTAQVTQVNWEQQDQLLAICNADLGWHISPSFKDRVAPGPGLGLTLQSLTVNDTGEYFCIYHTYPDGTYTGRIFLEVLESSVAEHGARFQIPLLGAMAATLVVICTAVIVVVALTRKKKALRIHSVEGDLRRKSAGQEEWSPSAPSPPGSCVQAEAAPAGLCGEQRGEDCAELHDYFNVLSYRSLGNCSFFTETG

B1: 参照抗体Tiragolumab (antibody, V domains shown)
VH: EVQLQQSGPGLVKPSQTLSLTCAISGDSVSSNSAAWNWIRQSPSRGLEWLGKTYYRFKWYSDYAVSVKGRITINPDTSKNQFSLQLNSVTPEDTAVFYCTRESTTYDLLAGPFDYWGQGTLVTVSS
VL: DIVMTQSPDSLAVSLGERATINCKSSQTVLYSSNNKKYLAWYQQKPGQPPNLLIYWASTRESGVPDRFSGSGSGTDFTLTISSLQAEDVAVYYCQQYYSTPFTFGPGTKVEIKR
B2: 抗体h10D8OF (antibody, human IgG1, kappa, V domains shown)
VH: QVQLVESGGGVVQPGRSLRLDCKASGFTFSSYGMSWVRQAPGKGLELVATINSNGGSTYYPDSVKGRFTISRDNSKNTLFLQMNSLRAEDTAVYYCARLGTGTLGFAYWGQGTLVTVSS
VL: EIVMTQSPATLSLSPGERATLSCKASQDVKTAVSWYQQKPGQAPRLLIYWASTRATGIPARFSGSGSGTDYTLTISSLEPEDFAVYYCQQHYSTPWTFGQGTKVEIKR
notes: also called 抗TIGIT抗体
B3: 抗体h10D8OFKF (antibody, human IgG1, kappa, V domains shown)
VH: QVQLVESGGGVVQPGRSLRLDCKASGFTFSSYGMSWVRQAPGKGLELVATINSNGGSTYYPDSVKGRFTISRDNSKNTLFLQMNSLRAEDTAVYYCARLGTGTLGFAYWGQGTLVTVSS
VL: EIVMTQSPATLSLSPGERATLSCKASQDVKTAVSWYQQKPGQAPRLLIYWASTRATGIPARFSGSGSGTDYTLTISSLEPEDFAVYYCQQHYSTPWTFGQGTKVEIKR
modifications: fucosylation level about 0 (expressed in alpha-(1,6)-fucosyltransferase knockout CHO cells)
notes: also called 抗TIGIT抗体

The target of the assay is T1, 人TIGIT (TIGIT-Jurkat细胞表面). Kind of assay: flow cytometry; blocking of 12.5 nM biotinylated PVR-Fc binding to TIGIT-Jurkat cells.
Usually IC50 stands for the concentration at which inhibition is half-maximal. In turn, B1 displayed an IC50 of 2.82 nM. Then B2, with 0.441 nM; and B3, with 0.742 nM.
